The values that follow come from patent US20120301468A1, “ANTI-MN ANTIBODIES AND METHODS OF USING SAME” (BAYER HEALTHCARE LLC, priority 2005, published 2012).

For the assay, the target named is MN (Homo sapiens, UniProt Q16790). As to the kind of experiment: Surface plasmon resonance (BIAcore) binding to MN protein. More on the design: The MN protein represents the entire extra-cellular domain of the protein with a C-terminal histag for purification; His tag (C); made in house; host or cells: HKB-11 (mammalian cell line). To be noted: soluble MN, panning-derived full-length antibodies, read-out: Affinity (Kd). Here is the method: The binding interactions between MN protein and the antibodies of this invention were analyzed using surface plasmon resonance technology on a BIAcore 3000 instrument (BIAcore, Uppsala, Sweden). For the binding of full-length IgGs (1e4, 1aa1, and 3ee9), goat anti-human IgG Fc was covalently coupled to the CM5 biosensor chip at high density using a standard amine coupling kit (BIAcore, Uppsala, Sweden). A capture assay was then used to bind these IgG to the anti-human IgG Fc-immobilized surface, aiming for a 300 response unit BIAcore signal. […] After ligand binding, the flow rate was then increased to 25 μl/min and various concentrations of MN analyte (e.g., range of 50 nM to 1 nM) were flowed over the surface for 10 minutes such that the association phase could be monitored. […] The binding of Fabs to MN was similarly determined except that an anti-human-Fab IgG was immobilized onto the chip and used to capture the Fabs prior to the assessment of MN binding.
Binding interactions between HKB11-expressed human MN protein and human full-length anti-MN MAbs were analyzed using surface plasmon resonance technology on a BIAcore 3000 instrument (BIAcore, Uppsala, Sweden). […] After ligand binding, flow rate was increased to 25 ul/min and MN analyte (50 nM to 1 nM) was flowed over the surface for 10 min such that the association phase could be monitored. […]
In general terms: Surface plasmon resonance follows binding to a sensor surface in real time, without labels.

B1: 3a4: anti-MN antibody; CDRs SEQ ID NOS: 60, 66, 73, 108, 110, and 112 (antibody, V domains shown)
VH: QVELVESGGGLVQPGGSLRLSCAASGFTFSDYSINWVRQAPGKGLEYVSNISYSGSSTYYADSVKGRFTISRDNSKNTLYLQMNSLRAEDTAVYYCARFKYSGGSDSWGQGTLVTVSS
VL: DIELTQPPSVSVAPGQTARISCSGDNLPDFYVHWYQQKPGQAPVLVISEDNKRPSGIPERFSGSNSGNTATLTISGTQAEDEADYYCSTYGYTYSYSVFGGGTKLTVL
Broadly, the Kd is the equilibrium constant for the complex coming apart. With B1, the dissociation constant Kd came out at 1 nM.
